# Assays:
# c-Src SH2 = test: SH2 binding enrichment of the phosphorylated peptide, bacterial display (enrichment ratio); higher = better substrate or ligand; peptides without Tyr show the background
# Grb2 SH2 = Grb2 SH2 (UniProt P62993); test: as above
# SHP2-C SH2 = test: as above
# FGFR3 = FGFR3 (UniProt P22607); test: phosphorylation enrichment, bacterial display (enrichment ratio); higher = better substrate or ligand; peptides without Tyr show the background
# Fer (mouse) = test: as above
# EPHB1 = EPHB1 (UniProt P54762); test: as above
# Jak2 = Jak2 (UniProt O60674); test: as above
# Sequence of Jak2 (O60674 whole entry, looked up): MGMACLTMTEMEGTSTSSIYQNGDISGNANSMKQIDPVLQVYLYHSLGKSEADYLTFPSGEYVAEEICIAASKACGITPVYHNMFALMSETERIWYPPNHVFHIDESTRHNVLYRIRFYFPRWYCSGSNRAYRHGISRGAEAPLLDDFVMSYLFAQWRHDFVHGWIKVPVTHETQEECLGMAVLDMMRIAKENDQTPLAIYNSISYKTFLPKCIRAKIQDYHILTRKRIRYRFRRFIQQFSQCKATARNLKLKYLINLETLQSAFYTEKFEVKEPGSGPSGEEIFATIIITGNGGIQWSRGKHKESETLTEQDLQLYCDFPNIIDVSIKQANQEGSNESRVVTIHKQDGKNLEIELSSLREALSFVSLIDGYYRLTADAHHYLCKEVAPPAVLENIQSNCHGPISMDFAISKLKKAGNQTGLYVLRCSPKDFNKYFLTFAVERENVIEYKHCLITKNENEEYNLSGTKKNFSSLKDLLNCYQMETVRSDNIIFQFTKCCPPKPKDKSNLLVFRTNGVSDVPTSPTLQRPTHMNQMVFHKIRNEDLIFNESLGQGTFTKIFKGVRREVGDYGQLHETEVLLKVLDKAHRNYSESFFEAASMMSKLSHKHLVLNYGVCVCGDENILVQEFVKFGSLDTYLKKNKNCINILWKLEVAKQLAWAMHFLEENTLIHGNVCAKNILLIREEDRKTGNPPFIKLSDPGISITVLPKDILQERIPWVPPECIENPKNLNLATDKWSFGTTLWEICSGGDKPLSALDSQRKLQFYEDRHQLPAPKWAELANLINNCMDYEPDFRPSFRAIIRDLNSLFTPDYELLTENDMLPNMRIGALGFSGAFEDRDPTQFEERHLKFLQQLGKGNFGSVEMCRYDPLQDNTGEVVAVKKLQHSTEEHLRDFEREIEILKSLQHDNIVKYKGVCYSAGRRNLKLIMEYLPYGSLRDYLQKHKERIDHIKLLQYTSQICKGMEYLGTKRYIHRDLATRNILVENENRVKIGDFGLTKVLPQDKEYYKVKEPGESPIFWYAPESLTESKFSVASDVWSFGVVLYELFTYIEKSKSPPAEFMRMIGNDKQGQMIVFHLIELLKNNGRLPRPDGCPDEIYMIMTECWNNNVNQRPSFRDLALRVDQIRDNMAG
# MERTK = MERTK (UniProt Q12866); test: as above
# AncSZ = test: as above
# Hck = Hck (UniProt P08631); test: as above
# Sequence of Hck (P08631 whole entry, looked up): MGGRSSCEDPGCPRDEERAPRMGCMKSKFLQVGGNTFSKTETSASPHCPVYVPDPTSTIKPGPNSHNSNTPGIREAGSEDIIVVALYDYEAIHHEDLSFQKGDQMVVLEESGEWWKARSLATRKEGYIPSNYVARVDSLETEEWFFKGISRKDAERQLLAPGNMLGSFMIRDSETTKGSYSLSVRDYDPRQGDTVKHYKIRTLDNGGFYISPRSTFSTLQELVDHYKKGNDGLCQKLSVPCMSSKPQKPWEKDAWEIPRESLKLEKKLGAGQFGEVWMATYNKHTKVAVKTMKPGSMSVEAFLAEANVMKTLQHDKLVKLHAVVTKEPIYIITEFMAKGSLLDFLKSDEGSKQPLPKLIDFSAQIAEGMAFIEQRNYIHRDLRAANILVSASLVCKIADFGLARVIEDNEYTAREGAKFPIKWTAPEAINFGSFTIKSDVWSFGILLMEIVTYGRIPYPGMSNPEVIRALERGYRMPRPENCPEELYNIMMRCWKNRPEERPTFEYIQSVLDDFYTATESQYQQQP
# Fyn = Fyn (UniProt P06241); test: as above
# Sequence of Fyn (P06241 whole entry, looked up): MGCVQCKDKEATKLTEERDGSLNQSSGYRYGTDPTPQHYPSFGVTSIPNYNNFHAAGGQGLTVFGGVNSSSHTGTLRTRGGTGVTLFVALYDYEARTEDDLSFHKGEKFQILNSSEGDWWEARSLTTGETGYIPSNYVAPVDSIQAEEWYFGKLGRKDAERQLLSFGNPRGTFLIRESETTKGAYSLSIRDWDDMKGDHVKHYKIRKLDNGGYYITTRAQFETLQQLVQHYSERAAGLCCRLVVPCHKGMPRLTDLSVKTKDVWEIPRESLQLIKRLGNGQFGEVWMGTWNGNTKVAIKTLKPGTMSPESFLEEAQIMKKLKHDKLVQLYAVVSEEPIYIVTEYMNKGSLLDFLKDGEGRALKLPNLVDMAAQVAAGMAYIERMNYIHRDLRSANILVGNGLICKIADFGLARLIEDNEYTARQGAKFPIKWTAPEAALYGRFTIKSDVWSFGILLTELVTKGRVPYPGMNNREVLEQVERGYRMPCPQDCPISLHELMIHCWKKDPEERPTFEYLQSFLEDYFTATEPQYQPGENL
# EPHB2 = EPHB2 (UniProt P29323); test: as above
# Sequence of EPHB2 (P29323 whole entry, looked up): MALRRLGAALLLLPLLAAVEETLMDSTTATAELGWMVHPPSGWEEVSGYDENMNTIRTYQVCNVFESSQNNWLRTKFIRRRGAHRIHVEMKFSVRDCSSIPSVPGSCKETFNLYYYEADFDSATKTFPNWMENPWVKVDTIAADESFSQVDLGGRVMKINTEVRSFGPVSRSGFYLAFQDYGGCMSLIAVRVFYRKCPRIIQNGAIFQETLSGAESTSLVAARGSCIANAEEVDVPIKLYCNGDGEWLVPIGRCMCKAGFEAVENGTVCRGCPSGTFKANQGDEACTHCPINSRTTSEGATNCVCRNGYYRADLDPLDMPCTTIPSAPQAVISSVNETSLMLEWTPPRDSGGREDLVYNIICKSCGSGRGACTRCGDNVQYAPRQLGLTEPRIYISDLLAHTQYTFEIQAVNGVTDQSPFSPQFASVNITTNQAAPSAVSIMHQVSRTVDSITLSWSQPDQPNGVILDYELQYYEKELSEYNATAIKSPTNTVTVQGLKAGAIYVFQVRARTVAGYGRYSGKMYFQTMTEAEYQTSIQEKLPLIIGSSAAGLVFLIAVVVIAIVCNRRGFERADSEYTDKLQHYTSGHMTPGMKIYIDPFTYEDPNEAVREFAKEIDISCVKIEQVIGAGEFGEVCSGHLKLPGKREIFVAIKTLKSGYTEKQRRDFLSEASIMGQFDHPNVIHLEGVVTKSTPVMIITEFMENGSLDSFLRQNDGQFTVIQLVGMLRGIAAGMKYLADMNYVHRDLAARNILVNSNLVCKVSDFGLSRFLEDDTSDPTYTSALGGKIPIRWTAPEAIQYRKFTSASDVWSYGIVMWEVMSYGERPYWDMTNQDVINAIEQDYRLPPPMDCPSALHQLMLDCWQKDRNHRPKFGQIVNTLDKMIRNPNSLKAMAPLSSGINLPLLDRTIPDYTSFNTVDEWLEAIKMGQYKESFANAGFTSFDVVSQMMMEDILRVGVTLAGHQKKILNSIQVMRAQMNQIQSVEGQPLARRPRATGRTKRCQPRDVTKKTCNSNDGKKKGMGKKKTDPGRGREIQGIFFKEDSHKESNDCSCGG
# FGFR1 = FGFR1 (UniProt P11362); test: as above
# c-Abl (mouse) = test: as above
# c-Src = test: as above
# Fes = Fes (UniProt P07332); test: as above
# Sequence of Fes (P07332 whole entry, looked up, the tested form may be a part): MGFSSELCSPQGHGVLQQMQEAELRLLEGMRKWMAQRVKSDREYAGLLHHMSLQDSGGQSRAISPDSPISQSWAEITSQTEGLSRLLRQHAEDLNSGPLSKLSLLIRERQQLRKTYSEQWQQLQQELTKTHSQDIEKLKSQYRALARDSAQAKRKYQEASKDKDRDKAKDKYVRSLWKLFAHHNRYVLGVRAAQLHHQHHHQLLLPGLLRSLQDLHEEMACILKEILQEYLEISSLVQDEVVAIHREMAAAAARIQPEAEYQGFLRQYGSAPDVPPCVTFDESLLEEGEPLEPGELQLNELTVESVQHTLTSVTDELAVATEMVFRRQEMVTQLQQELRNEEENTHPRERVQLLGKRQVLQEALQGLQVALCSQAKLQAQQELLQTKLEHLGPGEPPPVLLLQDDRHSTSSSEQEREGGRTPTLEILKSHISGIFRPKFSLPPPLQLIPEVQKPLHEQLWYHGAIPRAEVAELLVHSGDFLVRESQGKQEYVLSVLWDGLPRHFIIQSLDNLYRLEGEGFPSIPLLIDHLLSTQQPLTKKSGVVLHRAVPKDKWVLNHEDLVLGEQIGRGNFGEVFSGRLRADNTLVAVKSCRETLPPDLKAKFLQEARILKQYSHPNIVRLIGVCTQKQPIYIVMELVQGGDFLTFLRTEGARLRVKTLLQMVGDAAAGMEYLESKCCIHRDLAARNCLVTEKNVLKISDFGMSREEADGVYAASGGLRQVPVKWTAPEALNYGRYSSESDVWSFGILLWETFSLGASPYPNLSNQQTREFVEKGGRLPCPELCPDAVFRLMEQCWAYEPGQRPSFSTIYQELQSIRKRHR
# 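Wherever SH2 binding enrichment of the phosphorylated peptide, bacterial display is given: peptide library displayed on the E. coli surface as eCPX fusions, selected cells deep-sequenced, score is each peptide's frequency after selection divided by its frequency in the input.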
# 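Wherever phosphorylation enrichment, bacterial display is given: 11-residue human phosphosite peptides and single-mutation variants displayed on the E. coli surface, counted by deep sequencing, each peptide's frequency after selection divided by its frequency in the unselected input library; frequency after pTyr selection over input frequency; kinase dosed for 20-30% of maximal phosphorylation in three min.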
# Sequence of FGFR3 (P22607 whole entry, looked up): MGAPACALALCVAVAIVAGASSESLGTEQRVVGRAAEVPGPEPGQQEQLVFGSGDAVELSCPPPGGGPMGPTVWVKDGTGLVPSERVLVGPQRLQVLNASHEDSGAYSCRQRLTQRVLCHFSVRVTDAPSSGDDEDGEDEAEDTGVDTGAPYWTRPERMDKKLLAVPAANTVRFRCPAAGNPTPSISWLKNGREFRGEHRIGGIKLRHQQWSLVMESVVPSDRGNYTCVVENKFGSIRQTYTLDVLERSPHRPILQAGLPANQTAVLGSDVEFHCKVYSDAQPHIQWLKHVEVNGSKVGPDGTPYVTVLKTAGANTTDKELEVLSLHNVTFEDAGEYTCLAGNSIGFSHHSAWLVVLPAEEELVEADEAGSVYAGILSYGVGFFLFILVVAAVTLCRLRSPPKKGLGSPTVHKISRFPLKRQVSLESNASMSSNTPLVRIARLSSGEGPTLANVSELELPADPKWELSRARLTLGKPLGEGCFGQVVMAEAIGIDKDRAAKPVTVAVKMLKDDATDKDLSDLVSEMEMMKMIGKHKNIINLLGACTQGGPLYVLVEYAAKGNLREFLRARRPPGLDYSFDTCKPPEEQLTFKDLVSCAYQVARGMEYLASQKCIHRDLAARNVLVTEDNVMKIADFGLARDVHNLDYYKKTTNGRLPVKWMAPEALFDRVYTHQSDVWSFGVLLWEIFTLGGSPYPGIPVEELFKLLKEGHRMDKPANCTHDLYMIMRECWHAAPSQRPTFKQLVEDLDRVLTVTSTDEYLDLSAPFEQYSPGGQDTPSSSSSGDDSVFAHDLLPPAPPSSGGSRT
SH2 binding enrichment (c-Src SH2),SH2 binding enrichment (Grb2 SH2),SH2 binding enrichment (SHP2-C SH2),Sequence,phosphorylation enrichment (FGFR3),phosphorylation enrichment (Fer (mouse)),phosphorylation enrichment (EPHB1),phosphorylation enrichment (Jak2),phosphorylation enrichment (MERTK),phosphorylation enrichment (AncSZ),phosphorylation enrichment (Hck),phosphorylation enrichment (Fyn),phosphorylation enrichment (EPHB2),phosphorylation enrichment (FGFR1),phosphorylation enrichment (c-Abl (mouse)),phosphorylation enrichment (c-Src),phosphorylation enrichment (Fes)
0.29,0.963,0.559,GVLKEYGGKVL [CPS1_Y529_V531G],0.415,0.354,0.393,0.537,0.374,0.588,0.403,0.364,0.343,0.361,0.546,0.396,0.686
0.576,0.977,0.759,DASENYFVTDS [TMEM240_Y77],1.44,0.517,1.44,1.37,0.516,1.41,0.659,0.444,0.886,1.35,0.86,0.492,1.23
0.479,0.81,0.569,SDVSSYLEGQV [GCG_Y110_A115V],0.735,0.547,0.616,1.09,0.478,0.924,0.511,0.557,0.534,0.532,0.838,0.52,1.24
0.53,0.935,0.614,RFLRGYHQDAF [HLA-A_Y137_R138H_YF],0.628,0.569,0.591,0.815,0.645,1.66,0.553,0.569,0.622,0.578,1.33,0.81,0.886
0.536,0.772,0.89,TNFRFYLRSLE [MTM1_Y71_L70F_YF],0.964,0.558,0.66,1.57,0.381,1.3,0.633,0.397,0.611,0.548,0.931,0.455,1.64
0.438,0.97,1.14,GLDGSYLLRYS [SH2D1A_Y29_D33Y],0.57,0.415,0.436,0.665,0.434,0.685,0.512,0.485,0.455,0.478,0.542,0.441,0.979
0.46,0.941,0.71,SHNELYFEEAE [VANGL1_Y344_YF],1.02,0.693,0.568,1.23,0.556,1.09,0.633,0.67,0.619,0.68,0.671,0.492,1.21
0.764,1.02,0.678,SILAVYSKDIF [PANK2_Y400_N404I_YF],0.537,0.46,0.477,0.688,2.99,0.691,0.765,1.11,0.494,0.445,0.578,1.62,0.663
